T1: ASK1 (Homo sapiens, UniProt Q99683)
T1 construct: Myc; expressed in transfected cells; host or cells: HEK293
T1 sequence (Q99683 1-1374): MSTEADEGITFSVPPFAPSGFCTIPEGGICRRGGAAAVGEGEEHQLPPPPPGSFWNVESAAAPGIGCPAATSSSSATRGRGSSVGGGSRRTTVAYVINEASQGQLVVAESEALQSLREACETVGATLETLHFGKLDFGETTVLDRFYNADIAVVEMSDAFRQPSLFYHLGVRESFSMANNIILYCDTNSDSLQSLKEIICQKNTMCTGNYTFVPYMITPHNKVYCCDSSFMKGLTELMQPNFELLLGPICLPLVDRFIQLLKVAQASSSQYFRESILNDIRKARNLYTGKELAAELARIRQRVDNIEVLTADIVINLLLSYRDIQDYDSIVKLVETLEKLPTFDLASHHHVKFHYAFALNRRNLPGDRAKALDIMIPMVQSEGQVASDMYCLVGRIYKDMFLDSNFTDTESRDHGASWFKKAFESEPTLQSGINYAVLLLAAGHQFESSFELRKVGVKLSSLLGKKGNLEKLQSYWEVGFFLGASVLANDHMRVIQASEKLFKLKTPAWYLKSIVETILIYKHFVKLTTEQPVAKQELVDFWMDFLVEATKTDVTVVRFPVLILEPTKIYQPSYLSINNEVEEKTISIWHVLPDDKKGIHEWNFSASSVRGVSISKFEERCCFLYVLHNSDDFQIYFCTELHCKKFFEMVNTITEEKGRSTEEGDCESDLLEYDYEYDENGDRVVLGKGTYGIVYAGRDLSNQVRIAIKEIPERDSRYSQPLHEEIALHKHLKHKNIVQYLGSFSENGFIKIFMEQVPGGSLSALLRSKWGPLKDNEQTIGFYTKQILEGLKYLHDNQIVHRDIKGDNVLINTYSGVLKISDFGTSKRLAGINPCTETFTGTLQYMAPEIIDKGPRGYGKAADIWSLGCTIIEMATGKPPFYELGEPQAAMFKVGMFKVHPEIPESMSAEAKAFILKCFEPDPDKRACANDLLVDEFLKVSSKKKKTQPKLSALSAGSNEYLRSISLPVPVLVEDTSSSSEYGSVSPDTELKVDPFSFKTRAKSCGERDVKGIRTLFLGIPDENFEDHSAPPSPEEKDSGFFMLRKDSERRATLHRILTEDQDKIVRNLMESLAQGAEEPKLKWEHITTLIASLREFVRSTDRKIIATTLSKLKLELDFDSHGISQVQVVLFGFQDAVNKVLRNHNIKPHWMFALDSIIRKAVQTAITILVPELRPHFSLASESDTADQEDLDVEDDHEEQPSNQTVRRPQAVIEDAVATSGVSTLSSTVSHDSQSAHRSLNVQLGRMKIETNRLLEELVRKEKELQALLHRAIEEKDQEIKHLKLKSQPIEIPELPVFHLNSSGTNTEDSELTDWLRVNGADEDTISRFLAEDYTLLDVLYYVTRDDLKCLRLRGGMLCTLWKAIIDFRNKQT

B1: CFP-ABP1: fusion protein of ABP1 with CFP at the N-terminal (protein)
chain: MRPLDIVELAEPEEVEVLEPEEDFEQFLLPVINEMREDIASLTREHGRAYLRNRSKLWEMDNMLIQIKTQVEASEESALNHLQNPGDAAEGRAAKRCEKAEEKAKEIAKMAEMLVELVRRIEKSESS
modifications: left off: large carriers
notes: fusion protein of ABP1 with CFP at the N-terminal
B2: ABP1: ASK1-binding protein of 127 amino acids encoded by gene PGR1 (SEQ ID NO:2); Myc-tagged in PAE-ABP1 cells (protein, listed as Homo sapiens)
chain: B1 chain
modifications: Myc tag
notes: Myc-tagged in PAE-ABP1 cells

What was measured:
[1] = target: T1, ASK1; test: Co-immunoprecipitation of ABP1 and ASK1 co-expressed in HEK293 cells; type: binding
Experimental: FIGS. 4A-B show the results of binding experiments of ABP1 and ASK1. FIG. 4A: HEK293 cells were transfected with Flag-ABP1 and the Myc-ASK1 plasmid, the cells were recovered after 24 hours, immunoprecipitation with an anti-Flag antibody was conducted, and immunoblot analysis was conducted using an anti-Myc antibody. FIG. 4B: HEK293 cells were transfected with Flag-ASK1 and the CFP-ABP1 plasmid, the cells were recovered after 24 hours, immunoprecipitation with an anti-Flag antibody was conducted, and immunoblot analysis was conducted using an anti-GFP antibody. Note that CFP is a variant of GFP and can be recognized by an anti-GFP antibody. For both FIGS. 4A and B, the two right lanes show the results obtained with H2O2 treatment (0.5 mM, 1 hour). […] IP stands for immunoprecipitation, and IB stands for immunoblot.
Two fusion proteins, i.e., Flag-ABP1 and Myc-ASK1, were co-expressed in HEK293 cells. […] The antibodies used were anti-Flag antibody (described above) and anti-Myc antibody (Clone 9E10, Calbiochem). This binding was enhanced by treatment with H2O2, which is ASK1 activation factor. […] The antibodies used were anti-Flag antibody (described above) and anti-GFP antibody (Medical & Biological Laboratories CO.).

[2] = tested on: HeLa cells; test: Cell death assay in HeLa cells transiently expressing CFP fusion proteins; type: cell-based
Experimental: FIGS. 6A-B show the induction of cell death by ABP1 in HeLa cells. FIG. 6A: Fluorescence photomicrographs at 36 hours after HeLa cells were transfected with CFP or the CFP-ABP1 plasmid (upper panel) and differential interference photomicrographs for the same fields (lower panel) are shown. FIG. 6B: The ratio (%) of cell death at 36 hours after transfection is shown.
FIGS. 10A-B show the induction of cell death by an ABP1-deficient variant. FIG. 10A: A schematic diagram of the ABP1-deficient variant is shown. […] FIG. 10B: The ratio (%) of cell death at 36 hours after transfection in cells introduced with the ABP1-deficient variant is shown.
• (1) To examine the intracellular localization and function of ABP1, HeLa cells were transfected with the CFP-ABP1 plasmid [prepared by subcloning ABP1 cDNA prepared by PCR into pECFP-C1 (Clontech)], which was also used in the immunoprecipitation experiment, and which expresses a fusion protein of ABP1 with CFP at the N-terminal-[transfection conducted using FuGENE6 (Roche Diagnostics K.K) as directed in the instruction manual thereof] to allow the transient expression of the protein, and CFP fluorescence was examined over time using a fluorescence microscope. […] This calculation was made for CFP-positive cells.
As described above, ABP1 has none of the functional domains of existing apoptosis-related factors. […]

[3] = tested on: PAE-ABP1 cells; test: DNA fragmentation (agarose gel electrophoresis) in PAE-ABP1 cells; type: cell-based, porcine; conditions: after removal of tetracycline
Experimental: PAE-ABP1 cells were examined for DNA fragmentation at each time after removal of tetracycline by agarose gel electrophoresis (upper panel). At both ends are molecular weight markers (M), with their sizes shown at the right end.
PAE-ABPl cells (2×10^6 cells) were lysed in 200 μl of lysis buffer [20 mM Tris-HCl (pH 7.5), 10 mM EDTA, 0.5% Triton X-100]. the lysate was centrifuged, and the supematant was recovered and treated with 0.2 mg/mi proteinase K at 420° C for 1 hour. Subsequently, DNA was purified by the phenol-chloroform extraction method and the ethanol precipitation method, this was lysed again in a TE buffer containing 0.2 mg/ml ribonuclease A (10mM Tris-HCl, 1mM EDTA), the lysate was electrophoresed on 2% agarose gel, stained with ethidium bromide, and the migration pattern was photographed.

[4] = tested on: ASK1; test: Immunoblot with anti-phosphorylated ASK1 antibody in PAE-ABP1 cells; type: cell-based, porcine; conditions: 12 hours after tetracycline removal
Excerpt: (§1) FIGS. 11A-B show the activation of ASK1, JNK, and p38 by ABP1. FIG. 11A: PAE-ABP1 cells were cultivated in the absence of tetracycline, the activation of endogenous JNK and p38 was examined by immunoblot analysis using each anti-phosphorylated protein antibody. FIG. 11B: PAE-ABP1 cells were cultivated in the absence of tetracycline, the activation of endogenous ASK1 was examined by immunoblot analysis using an anti-phosphorylated protein antibody. IB stands for immunoblot.
(§2) The activation of JNK and p38 during induction of the expression of ABP1 was investigated using respective anti-phosphorylated protein antibodies using PAE-ABP1 cells. The antibodies used were an anti-phosphorylated JNK antibody (Cell Signaling), an anti-phosphorylated p38 antibody (Cell Signaling), and an anti-phosphorylated ASK1 antibody (Tobiume et al., EMBO Rep., 2, 222-228, 2001). The cells were lysed using a lysis buffer (described above) in the same manner as Example 4, the lysate was centrifuged, the supernatant was recovered and reacted with an anti-Myc antibody (Clone 9E10, Calbiochem), Protein A-sepharose 4B (Zymed Laboratories) was added, incubation was conducted for 30 minutes, the reaction mixture was washed with the lysis buffer three times, an SDS sample buffer (described above) was added, and the same procedure as the immunoblotting method was followed.

[5] = tested on: p38; test: Immunoblot with anti-phosphorylated p38 antibody in PAE-ABP1 cells; type: cell-based, porcine; conditions: 12 hours after tetracycline removal
Excerpt: as §1, §2

[6] = tested on: PAE-ABP1 cells; test: Cell death assay in PAE-ABP1 cells after removal of tetracycline; type: cell-based, porcine; conditions: 48 hours after removal of tetracycline (Myc-ABP1 expressed)
Experimental: FIGS. 7A-B show the induction of cell death by ABP1 in PAE-ABP1 cells. FIG. 7A: Phase contrast photomicrographs at 36 hours after cultivation of PAE-ABP1 cells in the presence (+) and absence (−) of tetracycline (Tet) are shown. FIG. 7B: The ratio (%) of cell death from cultivation in the presence of tetracycline (O hour) and at 24 hours and 48 hours after removal of tetracycline.
FIGS. 9A-B show the caspase dependency of cell death by ABP1. FIG. 9A: PAE-ABP1 cells were cultivated in the absence of tetracycline, and caspase-3 activity was measured after 0, 12, 24, and 36 hours. The results are shown as relative values with the value in the presence of tetracycline taken as 1. FIG. 9B: PAE-ABP1 cells were treated with zVAD-fmk (50 μM) simultaneously with removal of tetracycline, and the ratio (%) of dead cells was quantified. Cell death assay was conducted at 18 hours after removal of tetracycline. […]
When these cells were cultured in the absence of tetracycline, cell death was induced with the expression of the ABP1 protein, as in the transient expression of the ABP1 protein in HeLa cells (FIG. 7A). The ratio of dead cells to all cells (the ratio of cells showing a morphological sign of cell death to all cells was determined under a microscope; the results were shown as the mean for three visual fields) was determined to be about 55% at 48 hours after removal of tetracycline (FIG. 7B).

[7] = tested on: JNK; test: Immunoblot with anti-phosphorylated JNK antibody in PAE-ABP1 cells; type: cell-based, porcine; conditions: 12 hours after tetracycline removal
Excerpt: as §1, §2

[8] = tested on: caspase-3; test: Caspase-3 activity (DEVD-AFC fluorometric assay) in PAE-ABP1 cells; type: cell-based, porcine; conditions: absence of tetracycline, around the time of cell death
Experimental: FIGS. 9A-B show the caspase dependency of cell death by ABP1. FIG. 9A: PAE-ABP1 cells were cultivated in the absence of tetracycline, and caspase-3 activity was measured after 0, 12, 24, and 36 hours. The results are shown as relative values with the value in the presence of tetracycline taken as 1. FIG. 9B: PAE-ABP1 cells were treated with zVAD-fmk (50 μM) simultaneously with removal of tetracycline, and the ratio (%) of dead cells was quantified. Cell death assay was conducted at 18 hours after removal of tetracycline. Tet stands for tetracycline.
The same was also confirmed in TUNEL staining of PAE-ABP1 cells. • (4) DNA fragmentation during apoptosis normally occurs subsequent to caspase activation. […] The measurement was conducted using a CPP32/caspase-3 fluorometric protease assay kit (MBL) with the synthetic fluorescence peptide DEVD-7-amino-4-trifluoromethyl coumarin (AFC) as a substrate. The fluorescence intensity from the liberated AFC was measured at an excitation wavelength of 360 nm and a fluorescence wavelength of 530 nm using a fluorescence spectrophotometer. Each sample was assayed twice. The results are shown as relative values with the value in the presence of tetracycline taken as 1.

Row | Molecule | effect of H2O2 treatment on binding of ABP1 and ASK1 ([1]; H2O2 treatment (0.5 mM, 1 hour)) | binding of ABP1 and ASK1 (co-immunoprecipitation) ([1]; immunoprecipitation with anti-Flag antibody, immunoblot) | ratio of cell death among cells expressing the fusion protein ([2]; 36 hours after transfection) | time after transfection at which signs of cell death began ([2]; detachment from the culture plate, membrane blebbing) | DNA fragmentation [3] | activation of endogenous ASK1 [4] | activation of endogenous p38 [5] | ratio of dead cells to all cells [6] | activation of endogenous JNK [7] | caspase-3 activity [8]
1 | B1 | also enhanced | binding of the two proteins was confirmed | about 70% | around 24 hours | – | – | – | – | – | –
2 | B2 | – | – | – | – | formed a DNA ladder | activation of ASK1 was observed | observed | about 55% | observed | decreased
